Reference: US20180237480A1 (UNIVERSITY OF EDINBURGH, published 2018)

Key:
human fibrinogen = target: T1, human fibrinogen (human, UniProt P02671 20-629; P02675 31-491; P02679 27-437); experiment: solid phase adherence assay, 1 µg Fg per well, absorbance 590 nm
T1 construct: The three chains are general knowledge about fibrinogen; also called human Fg
T1 sequence 1: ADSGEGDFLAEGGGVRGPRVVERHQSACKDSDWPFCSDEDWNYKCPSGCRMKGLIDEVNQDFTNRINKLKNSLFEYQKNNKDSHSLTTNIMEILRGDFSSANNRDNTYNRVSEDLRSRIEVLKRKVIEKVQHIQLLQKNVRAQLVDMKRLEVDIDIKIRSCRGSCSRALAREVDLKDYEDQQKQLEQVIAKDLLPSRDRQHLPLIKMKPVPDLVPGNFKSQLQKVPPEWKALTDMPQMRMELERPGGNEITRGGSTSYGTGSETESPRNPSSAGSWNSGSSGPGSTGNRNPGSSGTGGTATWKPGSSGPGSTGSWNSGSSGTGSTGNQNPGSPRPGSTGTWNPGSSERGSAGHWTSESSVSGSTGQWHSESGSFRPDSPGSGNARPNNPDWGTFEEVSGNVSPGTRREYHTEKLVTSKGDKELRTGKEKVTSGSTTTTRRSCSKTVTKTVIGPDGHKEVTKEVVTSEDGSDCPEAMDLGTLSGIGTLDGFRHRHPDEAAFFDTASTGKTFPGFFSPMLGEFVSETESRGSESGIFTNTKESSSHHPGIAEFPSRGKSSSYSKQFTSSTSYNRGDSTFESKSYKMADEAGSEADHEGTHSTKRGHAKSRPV
T1 sequence 2: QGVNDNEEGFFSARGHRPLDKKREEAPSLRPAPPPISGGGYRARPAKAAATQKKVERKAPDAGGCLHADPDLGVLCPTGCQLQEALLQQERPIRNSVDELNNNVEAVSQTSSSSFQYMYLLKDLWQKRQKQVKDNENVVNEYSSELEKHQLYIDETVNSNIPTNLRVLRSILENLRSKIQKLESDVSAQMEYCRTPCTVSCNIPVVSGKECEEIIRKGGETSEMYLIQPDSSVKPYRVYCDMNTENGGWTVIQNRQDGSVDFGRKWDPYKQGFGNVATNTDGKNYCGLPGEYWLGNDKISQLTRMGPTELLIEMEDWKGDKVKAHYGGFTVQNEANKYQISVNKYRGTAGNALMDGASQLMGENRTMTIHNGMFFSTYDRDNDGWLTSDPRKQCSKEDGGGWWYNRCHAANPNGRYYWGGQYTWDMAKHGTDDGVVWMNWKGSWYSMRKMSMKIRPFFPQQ
T1 sequence 3: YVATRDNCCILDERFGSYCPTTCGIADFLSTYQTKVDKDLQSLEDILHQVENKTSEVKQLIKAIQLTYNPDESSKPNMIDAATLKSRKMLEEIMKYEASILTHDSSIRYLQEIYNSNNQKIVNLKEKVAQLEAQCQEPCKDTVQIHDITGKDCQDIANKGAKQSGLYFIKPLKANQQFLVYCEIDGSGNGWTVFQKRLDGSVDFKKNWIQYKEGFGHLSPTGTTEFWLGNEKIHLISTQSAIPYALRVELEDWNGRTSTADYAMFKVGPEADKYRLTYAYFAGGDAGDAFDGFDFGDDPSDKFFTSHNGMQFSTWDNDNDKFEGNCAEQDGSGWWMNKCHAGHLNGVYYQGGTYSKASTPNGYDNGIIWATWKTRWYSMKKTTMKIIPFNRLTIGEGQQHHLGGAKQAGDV

bovine fibrinogen = target: T2, bovine fibrinogen (bovine, UniProt P02672 20-615; P02676 1-468; P12799 25-444); experiment: as above
T2 construct: The three chains are general knowledge about fibrinogen; also called bovine Fg
T2 sequence 1: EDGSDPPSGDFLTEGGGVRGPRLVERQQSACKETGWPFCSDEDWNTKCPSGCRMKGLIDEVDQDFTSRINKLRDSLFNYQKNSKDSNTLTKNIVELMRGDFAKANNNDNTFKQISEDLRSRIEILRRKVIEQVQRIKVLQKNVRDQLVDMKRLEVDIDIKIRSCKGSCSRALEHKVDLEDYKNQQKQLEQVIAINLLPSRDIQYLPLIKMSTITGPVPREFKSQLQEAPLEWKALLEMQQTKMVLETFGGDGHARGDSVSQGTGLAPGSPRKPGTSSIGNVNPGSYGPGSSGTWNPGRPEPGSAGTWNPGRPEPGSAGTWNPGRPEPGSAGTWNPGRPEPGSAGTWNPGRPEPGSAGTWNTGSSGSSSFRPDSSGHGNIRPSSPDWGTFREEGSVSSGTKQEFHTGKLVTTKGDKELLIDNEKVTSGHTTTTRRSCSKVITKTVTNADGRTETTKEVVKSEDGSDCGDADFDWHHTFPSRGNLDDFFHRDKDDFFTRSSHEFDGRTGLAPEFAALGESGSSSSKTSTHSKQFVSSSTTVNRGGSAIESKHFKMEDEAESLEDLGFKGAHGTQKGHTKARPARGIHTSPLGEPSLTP
T2 sequence 2: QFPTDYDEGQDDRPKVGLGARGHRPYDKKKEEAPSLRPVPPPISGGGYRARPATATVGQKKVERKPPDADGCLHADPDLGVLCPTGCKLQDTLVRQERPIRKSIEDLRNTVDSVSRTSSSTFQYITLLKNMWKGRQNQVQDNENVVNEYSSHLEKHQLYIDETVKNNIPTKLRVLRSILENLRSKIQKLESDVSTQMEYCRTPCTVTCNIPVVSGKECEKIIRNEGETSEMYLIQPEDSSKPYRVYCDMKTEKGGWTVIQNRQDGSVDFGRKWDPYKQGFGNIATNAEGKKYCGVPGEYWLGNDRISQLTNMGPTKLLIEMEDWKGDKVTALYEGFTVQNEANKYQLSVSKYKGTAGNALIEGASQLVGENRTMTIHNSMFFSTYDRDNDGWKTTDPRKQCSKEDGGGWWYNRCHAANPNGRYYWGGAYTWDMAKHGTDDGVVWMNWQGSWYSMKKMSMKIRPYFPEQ
T2 sequence 3: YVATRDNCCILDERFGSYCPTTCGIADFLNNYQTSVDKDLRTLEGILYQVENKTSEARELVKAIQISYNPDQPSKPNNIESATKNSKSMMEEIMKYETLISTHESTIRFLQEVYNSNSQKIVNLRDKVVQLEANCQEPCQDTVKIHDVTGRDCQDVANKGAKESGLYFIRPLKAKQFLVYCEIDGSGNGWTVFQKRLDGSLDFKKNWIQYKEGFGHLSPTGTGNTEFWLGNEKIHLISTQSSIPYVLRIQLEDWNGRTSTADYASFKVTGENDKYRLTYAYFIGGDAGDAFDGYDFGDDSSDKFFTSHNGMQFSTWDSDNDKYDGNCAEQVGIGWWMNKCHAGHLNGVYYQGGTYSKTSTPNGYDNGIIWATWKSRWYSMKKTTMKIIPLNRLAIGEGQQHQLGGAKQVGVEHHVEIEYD

B1: SpsD of S. pseudintermedius ED99, full-length, expressed on L. lactis MG1363 (pOri23) (other)
chain: SEVSATTQEHNVETEQTKTEGELTTEVAQQAVSESAPIAENMQKTTSVASENAKEVTASDSTQEVTKTEAKDTATMKDSEIAQPVSEVNKPVTQTAAPVAEPSTANKQTSPRQVQELTAPMDTKVINVENGTDVTSKVKVEKSSITGHQNKDKTYHQSNTVNPHKAERVTLNYDWSFENGIKAGDYFDFQLSDNVDTNGISTIKKVPHIMDSQNSEQIIAYGEINENNRVRYRFMDYVNQKENLKGKLSLNLFIKPDKVQDEGKITVTSQLGKEMTSQEFDIKYIDGVKSPSGITLNGRLDELSKADQSFTHYSIFKPKHNNLTNVTLRGTVSNNAQQNEKNGQVNVYEYIGQGELPQSAYANVNDTKQFNDITKSMKSIKNNSNGYEITFDMNKDNHPYIIVYQGHFNNNAKDFDFSTNATGYQNLNQSEYSYYWPYNYSFNLTWDNGVAFYSNNASGEGNDKPVPPTYGYSPTVNTIQDTHADYPVMTFQQPGTLEETEDSMPITTLTESGEDRGENTSPIIETTEDSQPVEFEEETNHGIQDVTLHADAVDFEEETNHGEQDTVHHSDVVEYDEDTTTGMLTGAISDHTTEEGTMEYTTDGLLIEFDDEMNPNVSGQYDDITTDTIEESSHIDTFTELESEFGQHDGIVTFEEDTIVEKPKTEKGNRVPLVIDLSTPKHNHQFNIQPTDPNIDTSATYRIGNFVWRDEDHNGVQNDGEHGLEGVLVTLKTADGVVLNTTTSDANGHYQFTNVQKGKYIVEFTTPEGYEATSKHTTANTEKDSDGLIANIDVTQDDMSIDAGFFPLENWNPQPEPKNPDDREKPAPEQPDVPQPEPKNPDDREKPAPEQPDVPQPEPKNPDDREKPAPEQPDVPQPEPKNPDDKEKPAPEQPDVPQPEPKNPDDKEKPAPEQPDAPQPKPMLPGEKVKPKPTHPGEAMQTTPQDKSTSQTDEALPKTGESSSQSSALIFGGLLSLLGLGLLRRSSKQNRSSMK
notes: also called L. lactis expressing SpsD; putative MSCRAMM SpsD
- binding result (human fibrinogen): binds
- binding result (bovine fibrinogen): binds
